Literature values as cited in PMC8291337.

Biological target: Spike protein (SARS-CoV-2) (UniProt P0DTC2)

## CD147 (from UniProt P35613)
  Kd: 185 nM
